Data taken from the Human Domainome abundance scans (Beltran et al. 2025).

B1: Far upstream element-binding protein 3, residues 75 to 150; numbered along this chain, Q96I24 (parent)
chain: RTVITEEFKVPDKMVGFIIGRGGEQISRIQAESGCKIQIASESSGIPERPCVLTGTPESIEQAKRLLGQIVDRCRN

Variants of: B1
Assay: abundance fitness (aPCA) (normalised: wild type 0, dead -1); higher = more abundant; growth selection in yeast, the domain comes from the species named
Conditions: Homo sapiens

Abundance fitness of substitutions, site by site:
S33: F -0.591; G -0.747; A -0.138; H -0.716; E -0.641; C -0.079; D -0.648; I -0.358
G22: E -0.044; C -0.057; Y -0.161; N 0.006; P -0.276; A -0.045; W -0.149; V -0.191; S -0.078; D 0.016; I -0.086; Q -0.085; K -0.007; R -0.012; F -0.1; T -0.09
R28: D -0.077; Y -0.173; T -0.064; P -0.617; E -0.079; H -0.108; L -0.143; S -0.085; W -0.118; Q -0.02; C -0.172; A -0.024; N -0.125; M -0.104; V -0.202; F -0.218
S27: A -0.033; H -0.117; G 0.004; R 0.068; N 0.023; Q -0.066; Y -0.241; F -0.153; L -0.075; T 0.026; P -0.232; E -0.014; C -0.147; D -0.084; W -0.167; V -0.092; I -0.187
V15: H -0.218; F -0.072; L -0.061; C -0.108; G -0.135; N -0.349; I -0.111; K -0.119; Q -0.162; P -0.37; T -0.158; Y -0.141; M -0.073; E -0.183; A -0.059; D -0.324; S -0.102
Q30: G -0.171; L -0.471; T -0.11; F -0.464; V -0.142; K -0.171; Y -0.31; P -0.693; E 0.029; R -0.05; M -0.097; H -0.279; S -0.051; W -0.487; D -0.582; A -0.058; I -0.131; N -0.369
I26: F -0.173; G -0.533; H -0.144; K -0.232; V -0.024; D -0.518; R -0.251; T -0.262; Y -0.288; Q -0.193; S -0.436; E -0.436; W -0.2; M -0.052; N -0.538; L -0.019; P -0.628; A -0.192; C -0.21
E24: A -0.008; W 0.222; I -0.035; K 0.063; N 0.052; Y 0.062; L -0.112; M -0.019; H 0.059; Q 0.055; V -0.03; D -0.053; F -0.043; C 0.031; G -0.045; R 0.113; P -0.271; T 0.008; S 0.016
G20: M -0.312; H -0.243; N -0.17; V -0.707; C -0.459; L -0.474; W -0.483; Q -0.116; E -0.127; P -0.347; A -0.118; T -0.228; R -0.168; D -0.104; Y -0.524; S -0.151
G23: M -0.078; K -0.082; Y -0.182; C -0.17; N -0.058; S -0.087; F -0.117; V -0.193; T -0.1; H -0.077; E -0.037; Q -0.042; D -0.091; R -0.056; I -0.294
I18: V -0.085; Q -0.234; N -0.295; E -0.182; K -0.279; H -0.279; S -0.271; M -0.079; F -0.133; P -0.192; G -0.272; R -0.425; Y -0.261; A -0.225; D -0.142; L -0.085; W -0.243
I29: D -0.432; E -0.621; C -0.191; H -0.622; F -0.278; A -0.213; Y -0.579; Q -0.599; T -0.271; R -0.856; W -0.521; K -0.676; P -0.625; S -0.595; G -0.677; L -0.034; M -0.105; V -0.049
R21: A 0.005; M -0.002; C -0.089; T 0.009; Q -0.009; L -0.057; I -0.107; S 0.005; V -0.057; F -0.147; Y -0.182; G -0.064; W -0.187; K -0.025; D -0.071; H -0.028; E 0.004; N 0.004
A31: G -0.06; E 0.025; Y -0.076; V -0.061; T -0.039; I -0.025; R -0.005; H 0.057; N -0.044; K 0.033; W -0.168; P -0.774; Q 0.003; S -0.029; L -0.063; M -0.07; F -0.127; D -0.015
F17: S -0.034; N -0.141; E 0.025; Q -0.031; P -0.095; Y -0.019; A -0.013; V -0.028; R -0.018; L -0.065; H -0.026; I -0.05; D 0.081; W -0.052; G -0.06; C -0.074
E32: L -0.044; P -0.95; S -0.093; Y -0.049; A -0.074; T -0.055; H -0.2; K -0.054; I -0.04; D -0.005; M -0.045; C -0.128; N -0.173; G -0.237; Q 0.016; W -0.131; R -0.039; V -0.073
G16: K 0.018; Q -0.027; N -0.055; F -0.223; P -0.029; H -0.042; C -0.074; L -0.148; Y -0.135; V -0.172; S -0.032; W -0.21; E -0.001; I -0.194; R -0.037; T -0.063; M -0.12; D -0.003
M14: E -0.216; K -0.345; H -0.089; Y -0.176; Q -0.248; G -0.311; N -0.101; V -0.159; P -0.451; W -0.063; L -0.061; F -0.127; R -0.423; I -0.33; D -0.126
I19: N -0.001; P -0.25; K -0.057; T -0.039; D -0.071; L -0.024; M -0.062; S -0.045; Q -0.048; E -0.081; A -0.074; C -0.093; G -0.102; H -0.163; R -0.045; W -0.096; V -0.033
Q25: W -0.213; S -0.026; C -0.025; L -0.138; P -0.163; Y -0.197; H -0.077; I -0.112; M -0.036; R 0.023; T -0.133; F -0.105; K -0.037; G -0.058; E -0.024; N -0.041; A -0.098; V -0.08
